We go through three molecules from publication PMC4660199.

Where no end group is shown, it is not given here.

By Kd is commonly meant the free concentration of one partner at which half of the binding sites on the other are occupied at equilibrium, for simple one-to-one binding. High values mean weaker binding, low ones tighter binding.

The target in this assay is full-length cpSRP43 (UniProt O22265). Kind of assay: ITC; VP-ITC, 20 °C, 20 mM Hepes (pH 7.5), 150 mM NaCl, 5 mM MgCl2, 0.25 mM TCEP; 0.01–0.1 mM in the cell, 0.1–1.0 mM in the syringe; duplicate or triplicate.

B1: A3CT K457A/R458A (domain or fragment)
chain: DENASKIISAGRAKRSIAQPDDAGERFRQLKEQEKRSKKNKAVAKDTVELVEESQSESEEGSDDEEEEAREGALASSTTSKPLPEVGQRRSKRSAAKRTV
B1 showed a dissociation constant (Kd) of 44 µM.

B2: A3CT K459A/R460A (domain or fragment)
chain: DENASKIISAGRAKRSIAQPDDAGERFRQLKEQEKRSKKNKAVAKDTVELVEESQSESEEGSDDEEEEAREGALASSTTSKPLPEVGQRRSKRSKRAATV
Consider B2, for which the dissociation constant (Kd) turned out to be 20 µM.
GALASSTTSKPLPEVGQRRSKRSKRKRT (also: 15N,13C labelled where it is the observed NMR partner) [A3CT IV peptide] showed a Kd of 15 µM.
